According to US20050064518A1 (PURDUE PHARMA L P, published 2005):

Experiments:
[1] = target: T1, O772P 3-repeat recombinant protein (human); experiment: ELISA, plate-bound O772P 3-repeat
T1 construct: Repeats are residues 14-452 of the entry
T1 chain: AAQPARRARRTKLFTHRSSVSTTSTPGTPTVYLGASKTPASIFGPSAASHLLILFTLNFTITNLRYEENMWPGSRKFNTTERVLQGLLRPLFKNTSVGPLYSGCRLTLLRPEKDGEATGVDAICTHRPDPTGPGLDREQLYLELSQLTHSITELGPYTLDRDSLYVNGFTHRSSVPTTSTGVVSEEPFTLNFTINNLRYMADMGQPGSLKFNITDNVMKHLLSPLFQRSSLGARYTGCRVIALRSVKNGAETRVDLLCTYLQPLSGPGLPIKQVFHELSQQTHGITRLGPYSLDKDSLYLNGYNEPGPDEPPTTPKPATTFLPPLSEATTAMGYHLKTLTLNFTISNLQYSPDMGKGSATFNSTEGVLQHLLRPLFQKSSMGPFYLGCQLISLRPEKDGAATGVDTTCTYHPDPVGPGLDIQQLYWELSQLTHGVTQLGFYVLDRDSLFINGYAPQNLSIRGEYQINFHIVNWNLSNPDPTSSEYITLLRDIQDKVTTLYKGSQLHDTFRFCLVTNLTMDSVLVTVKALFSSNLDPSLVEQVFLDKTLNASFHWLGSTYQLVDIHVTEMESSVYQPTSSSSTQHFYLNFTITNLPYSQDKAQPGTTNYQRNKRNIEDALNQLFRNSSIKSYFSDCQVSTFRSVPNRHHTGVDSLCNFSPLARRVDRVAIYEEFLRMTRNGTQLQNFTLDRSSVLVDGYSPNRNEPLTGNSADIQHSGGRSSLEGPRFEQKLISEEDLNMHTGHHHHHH
Method: On the next day, the plates were washed with 200 μl 1×PBST (1× phosphate-buffered saline (PBS), 0.05% Tween 20) three times and blocked with 100 μl of 1×PBST containing 1% bovine serum albumin (BSA) for 2 hours at 37° C. […] After 1 hour incubation at 37° C., the plates were then washed with 1×PBST three times. For signal detection, 100 μl of HRP (horseradish peroxidase)-conjugated sheep anti-mouse IgG (1:2000 dilution into 1×PBST+1% BSA; Amersham Biosciences) was added to each well and incubated for 1 hour at 37° C. The plates were again washed three times with 1×PBST. Finally, 100 μl¹ of a mixture of TMB (3,3′, 5,5′-tetramethylbenzidine) substrate and H₂O₂ (1:1 ratio, KPL Kirkguard Perry Laboratories) was added into each well and after a 5 minute incubation, the absorbance was measured at 405 nm with a plate reader (Molecular Devices Corp., Sunnyvale, Calif.). The assay was done in triplicate for each selected O772P hybridoma-produced antibody and data was collected and analyzed as a kinetic assay, measured over a 5 minute time period. Average values were calculated and presented. Controls for blank and individual reagents were also included in each experiment.

[2] = target: T2, CA 125/O772P on OVCAR-3 cells (human, UniProt Q8WXI7 1-14507); experiment: flow cytometry, OVCAR-3 cells; Ab 2 µg/ml
T2 construct: whole, on cells

[3] = target: T1, O772P 3-repeat recombinant protein; experiment: BIAcore SPR, O772P 3-repeat immobilized, mAb injected
Method: A […] BIAcore biosensor chip was docked into the BIAcore X instrument and activated with 55 μl of 1:1 NHS/EDC at room temperature. O772P 3-repeat region protein and BSA at 10 μg/ml in 0.05 M acetate buffer, pH 4.5, were immobilized onto the flow cell (FC) 1 and FC2 of the activated chip, respectively, at a flow rate of 5 μl/min to achieve a resonance response of 1000-2000 RU. The chip was then blocked by injection of 55 μl of ethanolamine-HCl, pH 8.5, and followed with washing 5 times with 50 mM NaOH-1 M NaCl. To measure the binding of anti-0722P mAbs to the O772P 3-repeat region immobilized to the chip, 30 μl of anti-0722P mAbs at varying concentrations in BIAcore running buffer (HBS-EP, Cat. #1001-080, BIAcore, Piscataway, N.J.) were injected over the sensor surface at a flow rate of 5 μl/min. Following completion of the injection phase, dissociation was monitored in BIAcore running buffer at the same flow rate for 360 seconds. The surface was regenerated between injections using 30 μl of 50 mM NaOH-1 M NaCl. Individual sensorgrams were analyzed using BIAevaluation.

[4] = target: T3, O772P 3-repeat TM on transfected NIH/3T3 cells (human); experiment: flow cytometry, NIH/3T3 cells expressing O772P 3-repeat TM; Ab 2 µg/ml
T3 construct: also called NIH/3T3 O772P 3-repeat
T3 chain: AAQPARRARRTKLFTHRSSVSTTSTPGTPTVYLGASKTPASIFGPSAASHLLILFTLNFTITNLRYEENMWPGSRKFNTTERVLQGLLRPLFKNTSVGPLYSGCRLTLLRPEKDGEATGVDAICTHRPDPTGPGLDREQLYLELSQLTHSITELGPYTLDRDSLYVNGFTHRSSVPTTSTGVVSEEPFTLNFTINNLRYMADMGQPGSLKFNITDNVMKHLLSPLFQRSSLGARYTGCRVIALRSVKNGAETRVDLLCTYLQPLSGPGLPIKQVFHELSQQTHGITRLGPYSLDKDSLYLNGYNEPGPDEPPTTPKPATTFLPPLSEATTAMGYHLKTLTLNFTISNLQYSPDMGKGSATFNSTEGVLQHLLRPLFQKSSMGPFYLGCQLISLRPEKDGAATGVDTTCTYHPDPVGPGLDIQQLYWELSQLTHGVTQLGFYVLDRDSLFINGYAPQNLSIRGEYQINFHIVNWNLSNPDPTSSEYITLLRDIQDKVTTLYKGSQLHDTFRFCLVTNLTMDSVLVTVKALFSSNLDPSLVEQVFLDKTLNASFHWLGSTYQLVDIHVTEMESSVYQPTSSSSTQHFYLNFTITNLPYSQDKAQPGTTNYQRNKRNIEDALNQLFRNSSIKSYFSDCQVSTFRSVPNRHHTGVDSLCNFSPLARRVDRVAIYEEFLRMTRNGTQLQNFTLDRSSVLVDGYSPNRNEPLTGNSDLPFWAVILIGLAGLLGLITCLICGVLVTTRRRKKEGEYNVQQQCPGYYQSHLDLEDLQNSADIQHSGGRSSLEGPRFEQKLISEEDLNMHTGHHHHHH

[5] = target: T4, shed CA 125/O772P polypeptide (human, UniProt Q8WXI7 1-14401, limits assumed); experiment: western blot of OVCAR-3 conditioned media (Time 0, 1 hour, 6 hours, Day 1, Day 2, Day 3), chemiluminescence
T4 construct: OVCAR-3 conditioned medium in the western blot; also called high molecular weight species in OVCAR-3 supernatant

B1: monoclonal antibody 117.1 (antibody, V domains shown)
VH: QVTLKESGPGILQPSQTLSLTCSFSGFSLSTPGMGVGWIRQPSGKGLEWLAHIWWDDFKRDNPALKSRLTISKDTSSSQVFLKIASVDTADTATYYCVRVDGNFLSWYFDVWGAGTTVTVSS
VL: DAVMTQTPLSLPVSLGDQASISCRSSQSLVHSNGNTYLHWYLQKPGQSPKLLIYKVSNRFSGVPDRFSGSGSGTDFTLRISRVEAEDLGVYFCSQSRYVPWTFGGGTKLEIK
notes: Murine hybridoma antibody
[1]
  absorbance (OD): 0.619 OD
  absorbance (OD)/µg Ab: 15 OD/µg Ab
[2]
  % positive cells: 93%
[3]
  Kd: 12 nM
[4]
  % positive cells: 83%

B2: monoclonal antibody 368.1 (antibody, V domains shown)
VH: EVQLQQSGPELVRTGASVKISCKASGYSFTGFYMHWVKQSLGKSLEWIGYVSCYTGATTYTQKFKGKATFTVDTSSSTAYMQLNSLTSEDSAVYYCAREGDYYSMDFWGQGTSVTVSS
VL: DVVMTQTPLSLPVSLGDQASISCRSSQSLERTNGNTYLHWYLQKPGQSPKLLIYKVSSRFSGVPDRFSGSGSGTDFTLKISRVEAEDLGIYFCSQTTHGPPTCGGGTKLEIK
notes: Murine hybridoma antibody
[1]
  absorbance (OD): 1.29 OD
  absorbance (OD)/µg Ab: 32 OD/µg Ab
[2]
  % positive cells: 89%
[3]
  Kd: 0.7 nM
[4]
  % positive cells: 86%
[5]
  binding result: no binding (tested: Day 3 conditioned medium)

B3: monoclonal antibody 501.1 (antibody, V domains shown)
VH: QIQLVQSGPELKKPGETVQISCKASGYIFTDYGMNWVKQAPGKGLKWMGCINTYTGETIYSDDFRGRFAISLETSASTAFIQINNLKNEDAATYFCARGNYRDAIDYWGQGTSVTVSS
VL: DIKMTQSPSSIYASLGERVTITCKASQDIKSYLSWYQQKPWKSPKTLIYYATTLADGVPSRFSGSGSGQDYSLIINSLESDDIATYFCLHHDESPFTFGSGTKLEI
notes: Murine hybridoma antibody
[1]
  absorbance (OD): 0.856 OD
  absorbance (OD)/µg Ab: 21 OD/µg Ab
[2]
  % positive cells: 95%
[3]
  Kd: 70 nM
[4]
  % positive cells: 89%
